Measured values reported in the supplement of paper PMC10567573.

B1: LPCAT4 (parent)
chain: HDPLYGKLFSTYLRPPHTSRGTSQ

Variants of: B1
Assay: protein stability index of a GFP-peptide fusion (GPS, HEK-293T) (PSI 1-6); higher = more stable
Conditions: c terminus: a fixed tail appended
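Also: lentivirally expressed fusions sorted by FACS into six bins by GFP to DsRed ratio, PSI derived from sequencing read proportions per bin multiplied by bin number.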

Protein stability index: each site, then its substitutions
Y12: C 3.01, N 3.4, K 3.91, T 3.95, E 4.3, F 2.8, A 3.74, Q 3.53, I 3.11, W 2.53, R 3.76, H 3.31, L 2.85, S 3.97, P 4.14, D 4.06, G 3.36, V 2.92, M 2.76
L4: C 3.28, G 3.3, P 3.28, S 3.35, K 1.9, E 3.46, A 2.32, R 1.58, Y 2.69, W 2.98, I 2.04, T 2.87, H 3.22, Q 2.03, M 3.29, F 3.22, D 3.74, N 2.28, V 2.66
Y5: H 2.98, G 2.76, F 2.47, S 3.21, T 3.36, A 2.94, C 3.69, K 3.43, D 3.92, N 2.85, I 2.69, M 3.11, R 3.18, Q 3.82, V 3.3, W 2.11, E 3.67, P 3.65, L 3.05
R20: F 2.17, L 2.19, W 2.2, Q 2.85, N 2.56, H 2.86, D 2.67, C 2.36, M 2.08, V 2.29, T 2.67, S 2.58, A 2.78, P 2.66, K 2.8, I 2.43, Y 2.3, G 2.83, E 3.53
T18: N 3.05, M 2.57, C 2.66, Y 2.29, W 2.12, A 2.52, F 2.24, H 2.61, Q 2.61, P 2.45, G 2.41, E 2.6, R 2.57, I 2.52, S 2.3, D 2.83, K 2.65, L 2.42, V 2.68
G21: A 2.95
G6: F 1.58, V 2.56, S 1.27, M 1.7, I 1.6, H 1.88, N 2.08, C 2.17, W 2.06, K 1.73, A 1.77, Q 2.35, T 1.86, D 3.61, Y 2.42, P 3.46, E 3.19, L 2.18, R 1.76
S19: D 3.1, E 2.44, P 2.7, T 2.61, H 2.29, N 3.12, Y 2.38, K 2.62, A 2.72, R 2.74, Q 2.51, C 2.91, L 2.36, I 2.79, V 2.55, M 2.35, G 2.8, F 2.07, W 1.95
T11: D 3.46, P 2.48, W 2.77, L 2.39, Y 2.82, M 2.92, E 3.07, K 3.45, A 4.05, G 2.49, R 2.94, V 2.24, F 2.75, N 3.02, S 2.63, C 2.48, I 2.46, H 3.05, Q 3.43
L8: T 4.31, E 4.85, C 4.01, P 4.26, Q 4.58, R 4.27, Y 2.58, W 2.37, A 4.59, G 4.66, F 2.15, I 3.25, N 4.19, D 4.88, H 4.44, S 4.68, V 3.62, K 3.91, M 3.73
K7: I 2.75, Y 1.78, Q 3.12, F 1.94, W 1.96, N 3.36, P 2.36, A 2.55, V 2.68, G 3.25, T 3.43, M 2.65, H 2, C 2.04, L 2.46, E 3.29, R 2.46, D 3.28, S 2.58
H17: V 2.53, F 2.9, I 2.43, R 2.3, M 2.43, Y 2.53, C 2.7, W 2.19, E 3.22, S 2.31, A 2.79, D 2.82, N 2.59, Q 2.61, P 2.99, K 2.38, T 2.82, G 2.25, L 2.66
F9: G 4.09, K 4.05, S 4.74, E 4.54, C 3.71, I 3.82, W 2.43, Y 3.8, H 4.33, D 4.41, L 3.54, N 4.76, T 4.12, Q 4.37, P 3.65, M 4.35, R 4.13, A 4.32, V 4.24
P16: M 3.13, Q 3.27, D 3.37, H 2.52, K 3.01, L 2.68, G 3.01, S 2.67, F 1.77, E 3.19, W 2.42, T 2.76, I 2.41, C 2.26, V 2.46, R 2.77, N 2.94, A 2.2, Y 2.22
R14: N 3.04, I 3.17, L 2.32, C 2.78, M 2.79, D 3.9, W 2.52, G 3.73, A 3.08, K 2.66, F 2.81, Q 2.83, V 3.17, H 3.28, E 3.4, P 3.71, S 2.69, T 3.09, Y 2.81
P3: V 2.76, Q 2.38, N 2.44, W 2.03, R 2.55, M 2.27, Y 2.55, L 2.25, T 2.7, S 2.3
L13: W 2.77, R 3.39, T 3.72, P 3.21, Y 2.78, D 4.11, I 3.06, E 3.99, Q 4.06, F 3.21, N 4.16, M 3.1, K 3.44, C 2.77, A 3.73, S 4.04, H 3.88, V 3.72, G 3.62
P15: Y 2.52, N 2.36, S 2.48, C 2.11, V 2.42, E 2.13, F 2.08, H 2.47, K 2.6, A 2.7, T 1.88, L 2.27, W 2.37, M 2.51, R 2.85, I 2.32, D 3.16, G 3.2, Q 2.47
S10: R 3.02, Y 1.67, Q 3.78, G 3.34, A 2.96, N 3.97, V 2.64, F 1.96, P 4.13, T 3.63, H 3.8, C 1.97, W 2.44, M 2.72, K 3.46, D 4.06, E 4.21, I 2.49, L 2.96
